Measured values: the RNAGym collection of RNA variant scans (doi:10.1073/pnas.2313332121)

B1: TPR t1 (parent)
chain: GACCAAUCUGCCCUCAGAGCUCGAGAACAUCUUCGGAUGCAGAGGAGGCAGGCUUCGGUGGCGCGAUAGCGCCAACGUCCUCAACCUCCAAUGCAUCCCACCACAUGAUGAUGCCUGAAGAGCCUUGGUUUUUUG

Variants of: B1
Test: polymerase ribozyme fitness, log enrichment relative to wild type (log ratio); higher = more active; in vitro selection for triplet polymerase activity
Procedure, shortened: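 A heterodimeric triplet polymerase ribozyme had each of its subunits mutagenized by PCR into a library, which was transcribed. One round of in vitro selection, done in triplicate, annealed each library with a biotinylated primer, its partner subunit and triplets, then incubated it frozen at −7 °C before gel excision of extended constructs, streptavidin-bead capture and RT-PCR. Fitness is the logarithm of genotype enrichment relative to wild-type enrichment, based on Illumina sequencing of inputs and outputs and inverse-variance-weighted replicate averages. A base-2 logarithm is used, and genotypes were kept only with ≥10 input reads and ≥1 read per output.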

Row | Variant | polymerase ribozyme fitness (log ratio)
1 | C40G A84U | -1.56
2 | C40G U78A | -0.582
3 | G44A C89U C114G G127U U132A | -3.64
4 | C8G G42U G60C U81A U129G | -6.22
5 | U7G G61U C82G A91C U112C | 0.65
6 | C13U U54A | 1.21
7 | G51A | -2.49
8 | C3U G39A G69U A105C G120U G128C | -3.77
9 | G57U G60C G61C G113A | -4.44
10 | G57A C89U U130C | -0.888
11 | G51U G60U C73G | -2.23
12 | C8G C22U G23A C123G | -7.38
13 | G61U U116C | 0.227
14 | G61A C98U C114A | -2.26
15 | C20U C72U | -1.9
16 | C11G C104A U130A | -2.13
17 | U7C G52U C98U C124A | -0.108
18 | G10U C20U A43C A50C C79G C88U A121G | -4.86
19 | C20A A50U G120A | -3.84
20 | G47U U55C C101G | -2.84
21 | C12U C13U C76A C114G | -3.72
22 | C3U G17U | -3.11
23 | U32C G63A U78G C98U G117U | -6.07
24 | G61C A105U | -3.67

Row | Variant | polymerase ribozyme fitness (log ratio)
25 | A50G G57C G61U C88G | -3.3
26 | G25C U116C | -5.31
27 | C11U A18C C72G G127A | -5.18
28 | G47A A50U G61U | -0.935
29 | G47U G60A C86A C89U | -0.955
30 | U55G A103C | -4.87
31 | C76A U106A | -1.33
32 | G36U A83U | -1.49
33 | G61C U78A U106A G120A | 0.446
34 | A37G G69U C89G | -2.64
35 | A5C C15U G60C U96A | -2.98
36 | A68U C79A C104A A111U | -8.01
37 | C13G G45U C72U C89A G120U U130A | -2.6
38 | C13A A84U G93U G117U | -6.66
39 | C73U C94A C104U G117U | -3.3
40 | U21C G48U U112C A118U | 1.11
41 | A46U C88U A103G | -7.61
42 | C12U U30C G61U | -3.15
43 | G44A G71A U87G A90C G135U | -2.38
44 | G44U C124G | -0.383
45 | C34U C94G | -5.95
46 | U14A G122A | -1.5
47 | C3U C20G C53A C97U U109A | -3.06
48 | G63C C76A A91C A100C C115G C123A | -4.91

Row | Variant | polymerase ribozyme fitness (log ratio)
49 | U32C C86U C101U C114A | -4.6
50 | U54G G120A | -0.587
51 | A2C C40U G60U C62G | -3.56
52 | U21A G35U A74U A111U | -6.43
53 | C20A C40A C76G C124A | -2.76
54 | C56G C72A C79U | -1.41
55 | C40G U54A G61C A100U | -4.7
56 | A6C G61A C115U | -1.31
57 | A18U A66U | -3.87
58 | U21C G71U | -0.75
59 | G48C C73G G93A | -1.8
60 | C11U A50U G57A | -1.89
61 | G71A G113A | -1.22
62 | U9C C73U | 0.362
63 | C56A C85G U92C | -4.74
64 | A18C G71A C88U G93C | -4.58
65 | G44A G60C A111U | -5.02
66 | G60C C98U | -0.75
67 | C85G U106C | -0.939
68 | C31U U32A G47C G61C G63A C115U | -7.14
69 | C22G A41U C88G U116G A121G | -4.87
70 | U33A C86G C114U | -4.98
71 | G48U G71A | -1.06
72 | C79A C80G | -5.91

Row | Variant | polymerase ribozyme fitness (log ratio)
73 | C49U G77C C124G U125C | -0.664
74 | G48A C72U G77C C82G A91C G110C G127C | -6.25
75 | G39A G69U C79A G127A | -2.91
76 | C62U C80A A84C | -3.26
77 | C11A C53G | -1.8
78 | G42U G77U U92A U106A | -2.9
79 | A37U C56U | -0.686
80 | C13G A16U C56U A105G A111C | -4.91
81 | G45U G63U C101G U112A | -2.32
82 | A27G C56U | -1.35
83 | G10U C12U A43U A118U | -0.927
84 | U54A G63U C99U G117U | -5.72
85 | C13U C76U C86G | -2.13
86 | A103C G120U | -4.69
87 | A43C C86U | -2.14
88 | A27G G61A | -1.92
89 | A26G A46G G63A | -3.44
90 | U7G G48U U59C C86G | -1.39
91 | C40U A83C | -0.818
92 | C49G G57C G58C G63U | -3.06
93 | C53U G113A | -1.57
94 | G10C C11U C94G | -0.146
95 | G71A C79A C85U | -2.89
96 | C12U C73A U96A C104U | -0.414

Row | Variant | polymerase ribozyme fitness (log ratio)
97 | A18C G19A G71U C104U C115A | -0.527
98 | C115A A118G | -0.852
99 | A37C G61U | 0.0821
100 | G52A G57A U129A | -2.51
101 | A26U G63U | -3.98
102 | G10U A43C C76U A90C C115A | -2.83
103 | A18U A26G C40G A43U C97A U112A | -6.73
104 | U32C G63U G69A | -4.13
105 | U14A G63U G113A | -5.73
106 | U54A C56A | 0.502
107 | C104U U129C | -0.415
108 | G10A C22G G61A G71C A111U G117A | -7.23
109 | U129A U132C | -0.64
110 | C12G A16U U55C U78C A108G C123U | -3.68
111 | U33A C89G A103U U112A G113U | -5.8
112 | A6U C64U | -0.037
113 | C72G A121U | 0.731
114 | U78G A103C U130C | -5.75
115 | A43C C73A U81G C86U | -6.91
116 | A18C G52A C72U | -2.39
117 | A26U C64U A118G | -3.85
118 | G44A G117U | -3.1
119 | U14G U112A | -0.444
120 | C86A A103U | -4.95

Row | Variant | polymerase ribozyme fitness (log ratio)
121 | G23U C123A | -5.92
122 | G36C G120A | -0.114
123 | C49G G51A G61C C94U | -3.22
124 | C15A A24U C70U G77C G110C | -6.25
125 | G39A G63U C82U U133G | -2.41
126 | A6G A29U A37G C56U C62G U87G A105C G117C | -5.41
127 | C12U C124U | 1.66
128 | C31U C49U C76G U81G U96A C104U A108U C124G U130C | -5.23
129 | C82U U96A | -1.57
130 | G25U G120C | -3.76
131 | C34A A37U C82G | -4.35
132 | A18U G120U | -1.46
133 | G63U C85A | -3.39
134 | U9C A37U | 0.172
135 | C49G C62A C86A U96A | -3.84
136 | G10C C34A C124A | -3.03
137 | C20U C34A | -4.05
138 | C15U U78C C79G C124G U131A | 0.897
139 | C101U U126G | -2.48
140 | C22A G61A A66C | -5.28
141 | C8G G45A C56U C94A C101A | -1.64
142 | C123U G135C | 1.48
143 | C53U C89A | -1.29
144 | A18C C72G C89G C114A U130A | -4.03

Row | Variant | polymerase ribozyme fitness (log ratio)
145 | C56U G77A C124U | 1.2
146 | G45U C70A C85A A90U | -6.19
147 | A29C G47A G69U | -1.84
148 | C13U C102G | -6.43
149 | C53G C124A G127A | 0.953
150 | U9G C12G G60U | 0.216
151 | C12G C72G | 0.202
152 | A41U C73G A103C | -6.66
153 | G48A G63U G113A | -2.17
154 | A41U U109G | -6.03
155 | C115U G128C | -3.16
156 | G35U C101U | -6.26
157 | A5C C53G C64U C94U | -1.07
158 | C40U C85A U129G U132C | -5.2
159 | U21C G63C | -0.656
160 | G10C G39A C76U A84U U87A | -2.28
161 | C3U C56U | -0.891
162 | G36U A74G A105U | -3.55
163 | A18G C40U C53U A83U G93C | -5.03
164 | C3A C20U U38A G61A C82A G110A G127A | -6.34
165 | C15G C70A | -5.24
166 | G42U G69U | -0.0944
167 | A5C U109A | -4.8
